Patent US4388232A, “Method of producing plasma fractions free of side-effects using fast-reacting antithrombin” (Immuno Aktiengesellschaft fur Chemisch Medizinische Produkte, priority 1979, dated 1983)

Test system: NMRI mice
Assay: LD50 test (toxicity of a preparation)
Assay type: in vivo, mouse (NMRI)
Details: intravenous
Procedure: The LD50 -test serves for determining the toxicity of a preparation. LD50 is the dose at which 50% of the animals die under experimental conditions. The preparation is intravenously injected in at least three dosages into ten NMRI ([…]) mice each, having a minimum body weight of 20 g. After an observation time of 7 days the living animals per dosage group are counted. The LD50 is calculated in accordance with Wilson and Worcester, Proc. Nat. Acad. Sci. U.S.A. 29, 114 (1943).

## Example 11: C1-esterase inhibitor, prepared with antithrombin III and heparin
7 days observation
  tolerance in LD50 test: excellently tolerated
7 days observation, 5,300 = maximum injectable amount C1-esterase-inhibitor
  LD50: > 5,300 units per kg body weight
